Experiments:
F1 hybrid maize plants = test: trait efficacy field trial, quizalofop-P pressure screening, F1 hybrid; format: in vivo; settings: crop injury percentage; for 4X Qizalofop-P CIPV4 / 4X Qizalofop-P CIPV8: 0.32 lb ai/acre at VE-V2, V4, V8; for 8X Qizalofop-P CIPV4 / 8X Qizalofop-P CIPV8: 0.64 lb ai/acre at VE-V2, V4, V8; for 16X Qizalofop-P CIPV4 / 16X Qizalofop-P CIPV8: 1.28 lb ai/acre at VE-V2, V4, V8
Method: Separate trait efficacy field trials for quizalofop-P and 2,4-D pressure screening were conducted at one location each with F1 hybrid transgenic plants produced by crossing an inbred plant containing maize event MON89034 with an R1 plant containing MON-HT1, MON-HT2, MON-HT8, MON-HT9, and MON-HT10 with and without operably linked CTP sequences. Transgenic F1 hybrid plants containing maize events NK603×MON89034 were used for comparison as a control.
In the trait efficacy field trial for quizalofop-P tolerance, one of three herbicide treatments was used: (1) quizalofop-P (Assure II) at 0.32 lb ai/acre (4×) plus 0.25% v/v non-ionic surfactant (NIS) applied at VE-V2 growth stage followed by the same at V4 growth stage followed by the same at V8 growth stage; (2) quizalofop-P at 0.64 lb ai/acre (8×) plus 0.25% v/v NIS applied at VE-V2 growth stage followed by the same at V4 growth stage followed by the same at V8 growth stage; or (3) quizalofop-P at 1.28 lb ai/acre (16×) plus 0.25% v/v NIS applied at VE-V2 growth stage followed by the same at V4 growth stage followed by the same at V8 growth stage. Plots were visually rated as above. […] The injury rating for the control plants after all quizalofop-P application was 100%. Error was calculated using LSD (0.05).

[1] = system: mRNA transcribed from the transgene cassette; test: Quantigene analysis of transgene mRNA expression in leaf samples; settings: normalized to maize housekeeping genes, average of eight samples
Description: Leaf samples were collected from the plants containing transgene cassettes encoding MON-HT1, MON-HT2, and MON-HT8 with and without CTP sequences to determine expression of the mRNA transcribed from the transgene cassette encoding the engineered proteins. Quantigene® analysis was done on the leaf sample extracts to determine mRNA expression of the transgene cassette. For these assays, the probe was to the common 3′-UTR sequence present in each expression cassette used to generate the transgenic plants. Relative expression was calculated by normalizing to maize housekeeping genes. A leaf sample was collected from each of eight plants for each construct configuration used to make the transgenic plants, and the reported relative mRNA expression data is an average of the eight samples with standard error.

transgenic maize plants = test: trait efficacy field trials with homozygous inbred plants, CTP evaluation; format: in vivo; settings: crop injury percentage
Description: To evaluate different chloroplast targeting peptides (CTP), plant transformation vectors were constructed, each comprising a recombinant DNA molecule optimized for monocot expression and encoding MON-HTI (SEQ ID NO: 16), MON-HT2 (SEQ ID NO:20), and MON-HT8 (SEQ ID NO:39), MON-HT9 (SEQ ID NO:42), or MON-HT10 (SEQ ID NO:45). The vectors were created using the same combination of promoter, leader, intron, and 3′-UTR, but with one of three separate CTPs (A, B, or C) or without a CTP operably linked to the protein-coding sequence. The DNA constructs were used to transform immature maize (LH244) embryos using Agrobacterium tumifaciens and standard methods known in the art. Regenerated RO transgenic plantlets were grown in the green house. The R0 plants were selfed to generate R1 homozygous seed. The R0 plants were also used as the male to cross with inbred plants containing maize event MON89034 to generate segregating F1 hybrid seed for trait efficacy field trials.
Separate trait efficacy field trials for quizalofop-P and 2,4-D were conducted at two locations each with the homozygous inbred transgenic plants (R2 or R4 generation). In these field trials, one of two herbicide treatments was used: (1) quizalofop-P (Assure II) at 0.16 lb ai/acre (2×) plus 0.25% v/v non-ionic surfactant (NIS) applied at V4 growth stage followed by the same at V8 growth stage; or (2) 2,4-D amine at 2 lb ae/acre (2×) plus 0.25% v/v non-ionic surfactant (NIS) applied to V4 followed by V8. Injury ratings (crop injury percentage at V4 (CIPV4) or V8 (CIPV8)) were taken 10 to 14 days after the V4 and V8 applications. Error was calculated using LSD (0.05).

[2] = CTP A, 0.16 lb ai/acre at V4, V8, LSD (0.05) = 1.45
[3] = CTP A, 0.16 lb ai/acre at V4, V8, LSD (0.05) = 2.2
[4] = CTP A, 2 lb ae/acre at V4, V8, LSD (0.05) = 0.95
[5] = CTP A, 2 lb ae/acre at V4, V8, LSD (0.05) = 1.6
[6] = CTP B, 0.16 lb ai/acre at V4, V8
[7] = CTP C, 0.16 lb ai/acre at V4, V8
[8] = no CTP, 0.16 lb ai/acre at V4, V8

B1: MON-HT8: engineered oxygenase protein, amino acid sequence SEQ ID NO:37 (protein)
chain: MHAALTPLTNKYRFIDVQPLTGVLGAEITGVDLREPLDDSTWNEILDAFHTYQVIYFPGQAITNEQHIAFSRRFGPVDPVPILKSIEGYPEVQMIRREANESGRVIGDDWHTDSTFLDAPPAAVVMRAIEVPEYGGDTGFLSMYSAWETLSPTMQATIEGLNVVHSATKVFGSLYQATNWRFSNTSVKVMDVDAGDRETVHPLVVTHPVTGRRALYCNQVYCQKIQGMTDAESKSLLQFLYEHATKFDFTCRVRWKKDQVLVWDNLCTMHRSVPDYGNAFRYLTRTTVAGDKPSR
4X Qizalofop-P CIPV4 (F1 hybrid maize plants; CTP A): 15
4X Qizalofop-P CIPV8 (F1 hybrid maize plants; CTP A): 15
8X Qizalofop-P CIPV4 (F1 hybrid maize plants; CTP A): 37.5
8X Qizalofop-P CIPV8 (F1 hybrid maize plants; CTP A): 35
16X Qizalofop-P CIPV4 (F1 hybrid maize plants; CTP A): 60
16X Qizalofop-P CIPV8 (F1 hybrid maize plants; CTP A): 50
4X Qizalofop-P CIPV4 (F1 hybrid maize plants; CTP B): 5
4X Qizalofop-P CIPV8 (F1 hybrid maize plants; CTP B): 7.5
8X Qizalofop-P CIPV4 (F1 hybrid maize plants; CTP B): 32.5
8X Qizalofop-P CIPV8 (F1 hybrid maize plants; CTP B): 35
16X Qizalofop-P CIPV4 (F1 hybrid maize plants; CTP B): 27.5
16X Qizalofop-P CIPV8 (F1 hybrid maize plants; CTP B): 30
4X Qizalofop-P CIPV4 (F1 hybrid maize plants; CTP C): 55
4X Qizalofop-P CIPV8 (F1 hybrid maize plants; CTP C): 45
8X Qizalofop-P CIPV4 (F1 hybrid maize plants; CTP C): 75
8X Qizalofop-P CIPV8 (F1 hybrid maize plants; CTP C): 55
16X Qizalofop-P CIPV4 (F1 hybrid maize plants; CTP C): 85
16X Qizalofop-P CIPV8 (F1 hybrid maize plants; CTP C): 72.5
Relative Expression ([1]; CTP A): 8.06
Relative Expression ([1]; CTP B): 7.62
Relative Expression ([1]; CTP C): 4.87
2X Quizalofop-P CIPV4 (transgenic maize plants; [2]): 0
2X Quizalofop-P CIPV8 (transgenic maize plants; [3]): 1.25
2X 2,4-D CIPV4 (transgenic maize plants; [4]): 1.75
2X 2,4-D CIPV8 (transgenic maize plants; [5]): 1.25
2X Quizalofop-P CIPV4 (transgenic maize plants; [6]): 0.75
2X Quizalofop-P CIPV8 (transgenic maize plants; [6]): 2.5
2X 2,4-D CIPV4 (transgenic maize plants; CTP B, 2 lb ae/acre at V4, V8): 0
2X 2,4-D CIPV8 (transgenic maize plants; CTP B, 2 lb ae/acre at V4, V8): 1.25
2X Quizalofop-P CIPV4 (transgenic maize plants; [7]): 0
2X Quizalofop-P CIPV8 (transgenic maize plants; [7]): 1.25
2X 2,4-D CIPV4 (transgenic maize plants; CTP C, 2 lb ae/acre at V4, V8): 1.25
2X 2,4-D CIPV8 (transgenic maize plants; CTP C, 2 lb ae/acre at V4, V8): 0

B2: MON-HT2: engineered oxygenase protein, amino acid sequence SEQ ID NO:18 (protein)
chain: MHAALTPLTNKYRFIDVQPLTGVLGAEITGVDLREPLDDSTWNEILDAFHTYQVIYFPGQAITNEQHIAFSRRFGPVDPVPLLKSIEGYPEVQMIRREANESSRVIGDDWHSDSTFLDAPPAAVVMRAIEVPEYGGDTGFLSMYSAWETLSPTMQATIEGLNVVHSATKVFGSLYQATNWRFSNTSVKVMDVDAGDRETVHPLVVTHPVTGRRALYCNQVYCQKIQGMTDAESKSLLQFLYEHATKFDFTCRVRWKKDQVLVWDNLCTMHRAAPDYAGKFRYLTRTTVAGDKPSR
4X Qizalofop-P CIPV4 (F1 hybrid maize plants; CTP A): 0
4X Qizalofop-P CIPV8 (F1 hybrid maize plants; CTP A): 5
8X Qizalofop-P CIPV4 (F1 hybrid maize plants; CTP A): 2.5
8X Qizalofop-P CIPV8 (F1 hybrid maize plants; CTP A): 7.5
16X Qizalofop-P CIPV4 (F1 hybrid maize plants; CTP A): 5
16X Qizalofop-P CIPV8 (F1 hybrid maize plants; CTP A): 15
4X Qizalofop-P CIPV4 (F1 hybrid maize plants; CTP B): 0
4X Qizalofop-P CIPV8 (F1 hybrid maize plants; CTP B): 5
8X Qizalofop-P CIPV4 (F1 hybrid maize plants; CTP B): 0
8X Qizalofop-P CIPV8 (F1 hybrid maize plants; CTP B): 10
16X Qizalofop-P CIPV4 (F1 hybrid maize plants; CTP B): 0
16X Qizalofop-P CIPV8 (F1 hybrid maize plants; CTP B): 20
4X Qizalofop-P CIPV4 (F1 hybrid maize plants; CTP C): 0
4X Qizalofop-P CIPV8 (F1 hybrid maize plants; CTP C): 5
8X Qizalofop-P CIPV4 (F1 hybrid maize plants; CTP C): 5
8X Qizalofop-P CIPV8 (F1 hybrid maize plants; CTP C): 12.5
16X Qizalofop-P CIPV4 (F1 hybrid maize plants; CTP C): 12.5
16X Qizalofop-P CIPV8 (F1 hybrid maize plants; CTP C): 20
4X Qizalofop-P CIPV4 (F1 hybrid maize plants; no CTP): 35
4X Qizalofop-P CIPV8 (F1 hybrid maize plants; no CTP): 45
8X Qizalofop-P CIPV4 (F1 hybrid maize plants; no CTP): 50
8X Qizalofop-P CIPV8 (F1 hybrid maize plants; no CTP): 37.5
16X Qizalofop-P CIPV4 (F1 hybrid maize plants; no CTP): 70
16X Qizalofop-P CIPV8 (F1 hybrid maize plants; no CTP): 55
Relative Expression ([1]; CTP A): 6.96
Relative Expression ([1]; CTP B): 6.16
Relative Expression ([1]; CTP C): 4.11
Relative Expression ([1]; no CTP): 4.66
2X Quizalofop-P CIPV4 (transgenic maize plants; [2]): 0
2X Quizalofop-P CIPV8 (transgenic maize plants; [3]): 1.875
2X 2,4-D CIPV4 (transgenic maize plants; [4]): 0.875
2X 2,4-D CIPV8 (transgenic maize plants; [5]): 1.25
2X Quizalofop-P CIPV4 (transgenic maize plants; [6]): 0
2X Quizalofop-P CIPV8 (transgenic maize plants; [6]): 0
2X 2,4-D CIPV4 (transgenic maize plants; CTP B, 2 lb ae/acre at V4, V8): 0
2X 2,4-D CIPV8 (transgenic maize plants; CTP B, 2 lb ae/acre at V4, V8): 2.5
2X Quizalofop-P CIPV4 (transgenic maize plants; [7]): 0
2X Quizalofop-P CIPV8 (transgenic maize plants; [7]): 2
2X 2,4-D CIPV4 (transgenic maize plants; CTP C, 2 lb ae/acre at V4, V8): 0
2X 2,4-D CIPV8 (transgenic maize plants; CTP C, 2 lb ae/acre at V4, V8): 1.25
2X Quizalofop-P CIPV4 (transgenic maize plants; [8]): 1.25
2X Quizalofop-P CIPV8 (transgenic maize plants; [8]): 3.5
2X 2,4-D CIPV4 (transgenic maize plants; no CTP, 2 lb ae/acre at V4, V8): 0
2X 2,4-D CIPV8 (transgenic maize plants; no CTP, 2 lb ae/acre at V4, V8): 2.5

Source: US12723255B2, “Herbicide tolerance genes and methods of use thereof” (priority 2014, dated 2026)
